Results taken from US20180256699A1.

Experiments:
[1] = molecular target: Recombinant soluble murine αMβ2 integrin (R&D Systems) (murine) (UniProt P05555); assay: ELISA, murine αMβ2 integrin coated, domain serially diluted, with calcium, rabbit anti-ACT detection
[2] = molecular target: Recombinant soluble murine αMβ2 integrin (R&D Systems) (murine) (UniProt P05555); assay: ELISA, murine αMβ2 integrin coated, ACT serially diluted, with calcium, rabbit anti-ACT detection
[3] = molecular target: αMβ2 integrin on J774A.1 murine macrophage cells (murine) (UniProt P05555); assay: flow cytometry: biotinylated ACT on J774A.1 cells on ice, no scAb, detected with streptavidin-PE; background: cells only 274, non-biotinylated ACT 292

Substance	EC50 [1]	EC50 [2]	mean fluorescence (PE-A) [3]
RTX751*, RTX domain of ACT, residues 751-1706, acylated (from UniProt J7QLC0 751-1706)	0.02 µM	–	–
Bordetella adenylate cyclase toxin (ACT), full-length, acylated (from UniProt J7QLC0 1-1706)	–	0.02 µM	4810
